# Measured values published in PMC10630410, “Functional dissection of PRC1 subunits RYBP and YAF2 during neural differentiation of embryonic stem cells” (Nature Communications, 2023).
# B1: His-mYAF2-mCherry (natural protein, mouse, UniProt Q99LW6 1-179, looked up)
# chain: MGDKKSPTRPKRQPKPASDEGYWDCSVCTFRNSAEAFKCMMCDVRKGTSTRKPRPVSQLVAQQVTQQFVPPTQSKKEKKDRVEKDKSEKEAASKKNCHKKTRPRLKNVDRSSAQHLEVTVGDLTVIITDFKEKAKSAPASSAAGDQHSQGSCSSDSTERGVSRSSSPRGEASSLNGESH
# notes: YAF2 (Yaf2), the coding region amplified from mouse cDNA, in pET-28a; also called His-YAF2; pET-28a-mYaf2-mCherry; source: E. coli BL21 (DE3), purified (Ni-NTA); not shown: His6, N-terminal, kept
# Target: T1, GST-RING1B (mouse, UniProt Q9CQJ4 1-336)
# T1 construct: RING1B (Ring1b), the coding region amplified from mouse cDNA, in pGEX-4T; also called pGEX-4T-mRing1b; source: E. coli BL21 (DE3), purified (glutathione agarose); not shown: GST, N-terminal, kept
# T1 sequence (looked up): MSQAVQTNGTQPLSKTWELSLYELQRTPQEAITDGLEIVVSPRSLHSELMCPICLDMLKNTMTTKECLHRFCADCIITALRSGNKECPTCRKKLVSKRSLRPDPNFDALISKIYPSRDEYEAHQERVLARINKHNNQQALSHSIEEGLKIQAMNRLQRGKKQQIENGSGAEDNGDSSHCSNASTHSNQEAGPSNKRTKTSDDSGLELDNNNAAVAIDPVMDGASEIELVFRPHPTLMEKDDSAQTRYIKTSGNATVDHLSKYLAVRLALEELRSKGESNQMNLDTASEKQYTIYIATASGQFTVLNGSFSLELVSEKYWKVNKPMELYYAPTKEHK
# Experiment: pull-down; same mixture as a3: purified His-mYAF2-mCherry (0, 100, 300 ng) with 300 ng purified GST-RING1B in the presence of mESC extract, PBS, 4 °C; read out as loss of RYBP from GST-RING1B
# Conditions: both partners purified
binder,measurement,value
B1,binding result,binds
